Values of other authors, collected in patent publication US12478627B2, “Irsogladine for the treatment of eosinophilic gastrointestinal diseases” (EPITHELION SCIENCE BIOTECH, S.L., priority 2019, dated 2025).

B1: Mepolizumab: mAb against IL-5 (antibody, chains of the INN, looked up, V domains shown)
VH: QVTLRESGPALVKPTQTLTLTCTVSGFSLTSYSVHWVRQPPGKGLEWLGVIWASGGTDYNSALMSRLSISKDTSRNQVVLTMTNMDPVDTATYYCARDPPSSLLRLDYWGRGTPVTVSS
VL: DIVMTQSPDSLAVSLGERATINCKSSQSLLNSGNQKNYLAWYQQKPGQPPKLLIYGASTRESGVPDRFSGSGSGTDFTLTISSLQAEDVAVYYCQNVHSFPFTFGGGTKLEIK
B2: Resolizumab: mAb against IL-5 (antibody, chains of the INN, looked up, V domains shown)
VH: EVQLVESGGGLVQPGGSLRLSCAVSGLSLTSNSVNWIRQAPGKGLEWVGLIWSNGDTDYNSAIKSRFTISRDTSKSTVYLQMNSLRAEDTAVYYCAREYYGYFDYWGQGTLVTVSS
VL: DIQMTQSPSSLSASVGDRVTITCLASEGISSYLAWYQQKPGKAPKLLIYGANSLQTGVPSRFSGSGSATDYTLTISSLQPEDFATYYCQQSYKFPNTFGQGTKVEVK

Test system: EoE and EoGIDs
Settings: patients with EoE or EoGIDs, literature reports

Molecule	clinical symptoms	tissue eosinophil infiltrate
B1	did not correspond with clinical improvement	significant reduction
B2	did not correspond with clinical improvement	significant reduction
